Data published in US20260078185A1 (published 2026).
Substitutions are numbered along the chain they refer to.

T1: mouse VISTA recombinant protein (Sino Biological Inc., Cat. #51550-M08H), biotinylated (mouse, UniProt Q9D659 33-191, biotinylated using EZ-LINK NHS-PEG4 biotin)
T1 chain: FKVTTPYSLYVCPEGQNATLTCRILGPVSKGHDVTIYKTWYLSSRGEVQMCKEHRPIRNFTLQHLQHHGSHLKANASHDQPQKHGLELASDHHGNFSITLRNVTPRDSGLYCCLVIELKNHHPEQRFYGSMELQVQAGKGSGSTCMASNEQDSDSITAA

B1: 9F9 humanized anti-VISTA antibody VH9/VL9 (antibody, V domains shown)
VH: QVQFVQSGAEVKKPGSSVKVSCKASGYTFSGYWMQWVKQAPGQGLEWIGAIYPGDGDTRYSQKFKGKVTLTADESTSTAYMELSSLRSEDTAVYYCARRDYGAWFAYWGQGTLVTVSS
VL: DIKVTQSPSSLSASVGDRVTITCKASQDINSYLSWYQQKPGKAPKTLIYRANRLVDGVPSRFSGSGSGQDYTFTISSLQPEDIATYYCLQYDEFPYTFGQGTKVEIK
B2: 9F9 humanized anti-VISTA antibody VH15/VL15 (antibody, V domains shown)
VH: QVQLVQSGAEVMKPGASVKLSCKASGYTFTGYWMQWVKQRPGQGLEWIGAIYPGDGDTRYSQKFKGKATMTADTSISTAYMELSRLRSDDSAVYYCARRDYGAWFAYWGAGTTVTVSS
VL: DIVMTQSPSSLSASVGERVTITCKASQDINSYLSWFQQKPGKAPKTLIYRANRLVDGVPSRFSGSGSGTDFTFTISSVQPEDLAIYYCLQYDEFPYTFGGGTKLEIK
B3: 9F9 humanized anti-VISTA antibody VH14/VL15 (antibody, V domains shown)
VH: B2 VH with L20I, K38R, S91T
VL: B2 VL
B4: 9F9 parental anti-VISTA antibody (VH0/VL0) (antibody, V domains shown)
VH: QVQFQQSGAELARPGASVKLSCKASGYTFTGYWMQWVKQRPGQGLEWIGAIYPGDGDTRYSQKFKGKVTLTADKSSSTAYMQLSSLASEDSAVYYCARRDYGAWFAYWGQGTLVTVSA
VL: DIKVTQSPSSMYASLGERVTITCKASQDINSYLSWFQQKPGKSPKTLIYRANRLVDGVPSRFSGSGSGQDYSLTISSLDYEDMGIYYCLQYDEFPYTFGGGTKLEIK
B5: 9F9 humanized anti-VISTA antibody VH7/VL7 (antibody, V domains shown)
VH: B1 VH with S16A, S30T, G44R, E74T, T76A
VL: B1 VL with D70E, F73L, I83F
B6: 9F9-VH8/VL8 (antibody, V domains shown)
VH: B1 VH with S16A, S30T, E74K
VL: B1 VL with G41E, Q69T, Y71F, F73L, I83F
B7: 20E4-VH1/VL1 (antibody, V domains shown)
VH: QVQLVQSGAEVKKPGASVKVSCKASGYTFSSSWVEWVRQAPGQGLEWMGEIFPGSGSTHYNEKFKGRVTMTRDTSISTAYMELSRLRSDDTAVYYCARRPPGWFFDVWGQGTTVTVSS
VL: DIQMTQSPSSLSASVGDRVTITCKASQDVSTDVAWYQQKPGKAPKLLIYSASYRYTGVPSRFSGSGSGTDFTLTISSLQPEDFATYYCQQHYSTPWTFGGGTKVEIK
B8: 20E4-VH4/VL4 (antibody, V domains shown)
VH: B7 VH with S30T, I76T, A79V, R85S, D89E, T113M
VL: DIVMTQSPDSLAVSLGERATINCKASQDVSTDVAWYQQKPGQPPKLLIYSASYRYTGVPDRFSGSGSGTDFTLTISSLQAEDVAVYYCQQHYSTPWTFGGGTKVEIK
B9: 20E4-VH3/VL3 (antibody, V domains shown)
VH: B7 VH with K12M, V20I, S25T, A40R, M48I, R67K, V68A, R72A, Q110A
VL: B7 VL with Q3V, L73F, L78V, F83L, T85V, V104L
B10: 20E4 parental anti-VISTA antibody (VH0/VL0) (antibody, V domains shown)
VH: QVQLQQSGAELMKPGASVKISCKATGYTFSSSWVEWVRQRPGHGLEWIGEIFPGSGSTHYNEKFKGKATFTADTSSNTAYLQLSSLTSDDSAVYYCARRPPGWFFDVWGAGTTVTVSS
VL: DIVMTQSHKFMSTSVGDRVSITCKASQDVSTDVAWYQQKPGQSPKLLIYSASYRYTGVPDRFTGSGSGTDFTFTISSVQAEDLAVYYCQQHYSTPWTFGGGTKLEIK

target: T2, Human VISTA recombinant protein (Sino Biological Inc., Cat. #13482-H08H), biotinylated (UniProt Q9H7M9 33-194, biotinylated using EZ-LINK NHS-PEG4 biotin); assay: Octet BLI
T2 sequence (Q9H7M9 33-194): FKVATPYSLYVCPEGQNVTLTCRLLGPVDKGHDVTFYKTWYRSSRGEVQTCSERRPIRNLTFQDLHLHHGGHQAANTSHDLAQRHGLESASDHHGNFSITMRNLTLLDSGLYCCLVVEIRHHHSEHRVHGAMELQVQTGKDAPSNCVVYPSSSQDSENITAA

| Binder | Kd |
| --- | --- |
| B1 | 26.6 nM |
| B2 | 24.4 nM |
| B3 | 20.3 nM |
| B4 | 9.45 nM |

Target: T1, mouse VISTA recombinant protein (Sino …)
Assay: Octet (BLI)

| Binder | Kd |
| --- | --- |
| B1 | 607 nM |
| B5 | 866 nM |
| B6 | 336 nM |
| B4 | 5.03 nM |

target: T2, Human VISTA recombinant protein (Sino …); assay: Octet BLI; remark: another data set of the same source

| Binder | Kd |
| --- | --- |
| B7 | 3.54 nM |
| B8 | 6.22 nM |
| B9 | 3.09 nM |
| B10 | 4.37 nM |

target: T2, Human VISTA recombinant protein (Sino …); assay: Octet BLI; remark: another data set of the same source

| Binder | Kd |
| --- | --- |
| B1 | 37.7 nM |
| B5 | 56.7 nM |
| B6 | 36.6 nM |
| B4 | 8.65 nM |

Target: T1, mouse VISTA recombinant protein (Sino …)
Assay: Octet (BLI)
Remark: another data set of the same source

| Binder | Kd |
| --- | --- |
| B1 | 23.9 nM |
| B2 | 20.8 nM |
| B3 | 17.5 nM |
| B4 | 12.2 nM |
